Test results as given in the nanobody polyreactivity screen of Harvey et al. (2022).

Assay: yeast display, Sf9 membrane polyspecificity reagent, FACS + sequencing; frameworks hold sequencing errors
Procedure, shortened: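 Polyreactivity labels are assigned by the sorting gate from which each nanobody was recovered. The gates were low and high (top ~1%), set on anti-HA fluorescence for expression and streptavidin fluorescence for reagent binding. Before sorting, galactose-induced (36–48 hours) yeast display cells were stained for 1 hour at 4 °C with 10% biotinylated, detergent-solubilized Sf9 membrane reagent.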

| Sequence | polyreactivity (PSR sort gate) |
| --- | --- |
| QVQLVESGGGLFQEGGSLRLSCAPSGSTLVFYAMGWYRHAPGKERELVAAITRSGGSTYYADSVKGRFTISRDNAKNTVYLQRNSLKPEDTAVYNCAADERYINERVSWGQGTQVTVSS | low polyreactivity |
| QVQLVESGGGLGHAGGSLRLSCAASGSIFFWYAMGWYRQAPGKERELVAAITQRTGSTYYADSVKGRFTISRDNAKNTVYLQMNSLKPEDTAVYYCAGKRWRRSFTGNYWGLGTQVTVSS | high polyreactivity |
| QVQLVESGGGLGQAGASLRLICAPSGSIFLIYCMGWYRQSPGKERELVAAITARGGSTYYADSVKGSFTISRDNAKNTVYLQMNSLKPEDTSVYYCNDVGYPDVGAGTYGYWGQGTQVTVSS | low polyreactivity |
| QVQLVESGGGLGQAGGRLRLSCAASGIYYNAMGWYRQAPGNERELVAAITTGDRTNYADSVKGRFTISRDNAKNTVYLQMNSLKPEDTAVYYCNAVVERLSSTARDFAYDYWGQGTQVTVSS | low polyreactivity |
| QVQLVESGGGLGQAGGSLRLSCAASGFTFYYYAMGWYRQAPGKERELVAAISYSGGSTYYADSVKGRFTISRDNAKNTVYLQMNSLKPEDTARYYCAADLSTYSRGFDYWGQGTQVTVSS | high polyreactivity |
| QVQLVESGGGLGQAGGSLRLSCAASGFTIIYYAMGWYRQAPGKERELVAAISRRGGRTYYADSVKGRFTISRDNAKNTVYLQMNSLKPEDTAVYYCAADGSGTSISYRYKHDYWGQGTQVTVSS | high polyreactivity |
| QVQLVESGGGLGQAGGSLRLSCAASGIIFQYYAMGWYRPAPGKERELVAVISSSGTNTYYADSVKGRFTISRDNAKNTVYLQMNSLKPEDTAVYYCNKVYRWFTRFDYWGQGTQVTVSS | high polyreactivity |
| QVQLVESGGGLGQAGGSLRLSCAASGRIFNTYAMGWYRQAPGKERELVAAITRSAGRTYYADSVKGRFTISRDNAKNTGYLQMNSQKPEDTAVYYCAAQYNYGQRSGPYGYWGQGTQVTVSS | low polyreactivity |
| QVQLVESGGGLGQAGGSLRLSCAASGRTITFNTMGWYRPAPGKERELVAGIDRGGSTNYADSVKGRFTISRDNAKNTVDLQMNSLKPEDTAVYYCAARNLRYRYRNYDYWGQGTQVTVSS | high polyreactivity |
| QVQLVESGGGLGQAGGSLRLSCAASGSIFAGNAMGWYRQAPRKERELVAAISRRGGSTYYADSVKGRFTISRDNAKNTVYLQMNSLKPEDTAVYYCNALLRYAYHAAYGYWGQGTQVTVSS | high polyreactivity |
| QVQLVESGGGLGQAGGSLRLSCAASGSIFPAYAMGCYRQAPGKERELVAAITFSGGSTYYADSVKGRFTISRDNAKNTVYLQMNSLKPEDTAVYYCATDSYGWRFNRAITSYGGDYWGQGTQVTVSS | low polyreactivity |
| QVQLVESGGGLGQAGGSLRLSCAASGSIFPEYVMGWNRQAPGKERELVAAISWSGGSTYYADSVKGRFTISRDNAKNPVFLQMNSLKPEDTAVYYCNRVPSWRIDYDYWGQGTQVTVSS | low polyreactivity |
| QVQLVESGGGLGQAGGSLRLSCAASGSIIPWNVMGWSRQARGKEREFVAGITFRVGSTYYADSVKGRFTISRDNAKNTVYLQMNSLKPEDTAVYYCAALIRAVDRYTYRYGYWGQGTQVTVSS | high polyreactivity |
| QVQLVESGGGLGQAGGSLRLSCAASGSTFARNTMGWYRQAPGKERELVAVITRGDSTYYADSVKGRFTISRDNAKNTVNLQMNSLKPEDTAVYYCNAYFRYAYPSKMDYWGQGTQVTVSS | low polyreactivity |
| QVQLVESGGGLGQAGGSLRLSCAASGSTFPYYAMGWSRPAPGKERELVAVITSSGSRTYYADSVKGRFSMSRDKAKNTVYLQMNSLKPEETAVYYCARDTRYYRPYRSQYDYWGQGTQVTVSS | high polyreactivity |
| QVQLVESGGGLGQAGGTLRLTCAASGSIFRTYAMGWYRQAPGKERELVAAITWSGGRTYYADSVKGRFTISRDNATNTVYLPMISLKPDDTAVYYCNAVYLAYGGDYWGQGTQVTVSS | high polyreactivity |
| QVQLVESGGGLIQAGGSLRLSCAASGIIFYPYTMGWYRQAPGKERELVAAIRQSGTSTYYADSVKGRFTISRDNAKNTVYLQMNSLKPEDTAVYYCAAPPYYSYDYWGQGTQVTVSS | low polyreactivity |
| QVQLVESGGGLLHAGGSLRLSCAASGRIFWFYTMGWYRQAPGKERELVAAISDSAGSTYYADSVKGRFTISRDNAKYTVYVPMNSLKPEDTAVYYCDADGWWQYDYWGHGTQVTVSS | low polyreactivity |
| QVQLVESGGGLLQAGGRLRLSCAASGSIFPYYAMGWYRQAPGKERALVAAISDSGDSTYYADSVKGRFTMSRDNAKNTVYLQMNSLKPEDTAVYYCAADQTSSYYDPWGDYWGQGTQVTVSS | low polyreactivity |
| QVQLVESGGGLLQAGGSLRFSCAASGRILAGNAMGWYRQAPGTEREWVAAICSVDSTNYADSVKGRFTISRDNAKNTFYLLMYSLKPEDSAVYYCARVPQYNTYSEFDSWGQGTQVTVSS | low polyreactivity |
| QVQLVESGGGLLQAGGSLRLSCAASGFIFRTYAMGWYRQAPGKERELVARISWSGGSTYYADSVKGRFTISRDNAKNTVYLQMNSLITEDTAVYYCARLGTLYESIEYDYWGQGTQVTVSS | low polyreactivity |
| QVQLVESGGGLLQAGGSLRLSCAASGFIFSLYAMGWYRQAPGKERELVASINRRGTSTFYADSVKGRFTISLDNAKKTVYLQMNSMKPEDTAVYYCNAYPVAAIRSTGSYDYWGQGTQVTVSS | low polyreactivity |

| Sequence | polyreactivity (PSR sort gate) |
| --- | --- |
| QVQLVESGGGLLQAGGSLRLSCAASGFTFQYNAMGWYRQAPGKERELVAAISRSGTSTYYADSVKGRFTISRDNAKNTVYLQMNSLKPEDTGVYYCNAYYLSGSVYWTGDIYDYWGQGTQVTVSS | high polyreactivity |
| QVQLVESGGGLLQAGGSLRLSCAASGFTFSFYARGWYRQAPGKERELVAAISYSGGITYYADSVKGRFTISRDNAKNTVYLQINSLKPEDTAVYYCAAVPGISVGRQPGYDYDYWGHGTQVTVSS | low polyreactivity |
| QVQLVESGGGLLQAGGSLRLSCAASGFTFYPNAMGWYRQAPGKERELVAAISRSGSSTYYADSVKGRFTISRDNAKNTVYLQMNSLKPEDTAVYYCNRYGRQYDFYYWGQGTQVTVSS | high polyreactivity |
| QVQLVESGGGLLQAGGSLRLSCAASGFTISYNVMGWYRQAPGKERELVAAITYSGGSTYYADSVKGRFTISRDNAKNTVYLQMNSLKPEDTAVYYCAAENGMPMDYWGQGTQVTVSS | low polyreactivity |
| QVQLVESGGGLLQAGGSLRLSCAASGIIIYYYAMGWYRQAPGKERELVAAITYRGGSTYADSVKGRFTISRDNAKNTVYLQMNSLKPEDTAVYYCNAVWEEKYQAPGSYDYWGQGTQVTVSS | low polyreactivity |
| QVQLVESGGGLLQAGGSLRLSCAASGITFTSYVMGWYRQAPGKERELVAAIRWSGGRTYYADSVKGRFTISRDNAKYTVYLQMNSLKPEDTAVYYCNRVTRSHVDYWGQGTQVTVSS | high polyreactivity |
| QVQLVESGGGLLQAGGSLRLSCAASGRIFAVYAMGWYRQAPGKEREFVAAISYSGGITYYADSVKGRFTISRDNAKNTVYLQMNSLKPEDSAVFYCNSYYYFWGQGTQVTVSS | low polyreactivity |
| QVQLVESGGGLLQAGGSLRLSCAASGRIFGDYGMGWYRQAPGKERELVAAITDRGGTTYYADSVKGRFTISRDNAKKTVYLQMNSMKPEDNAVYYCNARQSDIFDYDYWGQGTQVTVSS | low polyreactivity |
| QVQLVESGGGLLQAGGSLRLSCAASGRIFGVYAMGWYRQAPGKEMELVAAISWGGGSTYYADSVKGRFTISRDNAKNTVYLQMISLKPEDTAVFDCAADPPDGFYYTWDYDYWGQGTQVTVSS | low polyreactivity |
| QVQLVESGGGLLQAGGSLRLSCAASGRIFHYYAMGWYRQAPGKERELVAGIETSGGSTYYADSVNWRFTISRDNAKNTVYLKLNSLKPEDTAVYYCATDQYYSYDYVYWGQGTQVTVSS | low polyreactivity |
| QVQLVESGGGLLQAGGSLRLSCAASGRIFYSNAMGWYRQAPGKERELVATRTRRGGGTYYADSVKGRFTISRDNAKNSVYLQMNSLKPVDTAVYSCNAYDILPGGNFWYWYGSWGQGTQVTVSS | high polyreactivity |
| QVQLVESGGGLLQAGGSLRLSCAASGRTFSGYTMGWYRQAPGKERELLATIRDRGGSTYYADSVKGRFTISRDNAKNTVYLQMNSLTPEDSAVYYCAARRGRRYYYWGQGTQVTVSS | high polyreactivity |
| QVQLVESGGGLLQAGGSLRLSCAASGRTFYSNAMGWYRQAPGKERELVATISSGGSTNYADSVKGRFTISRDNAKNTVYLQMNSLKPEDTAVYYCAKRTHQFGVSRSYNTYYYWGQGTQVTVSS | low polyreactivity |
| QVQLVESGGGLLQAGGSLRLSCAASGRTFYVYAMGWYRQAPGKEREFVAAIDWGGGTTYYADSVKGRFTISRDNAKNNVYLQMNCLKPEDTAVYYCNAAYTDRFYYWGQGTQVTVSS | high polyreactivity |
| QVQLVESGGGLLQAGGSLRLSCAASGSIFGYYAMGWYRQAPGKERELVAAISRSGGSTYYADSVKGRFTISRDNAKNTVYLQMNSLKPEDTAVYYCAADDYPYGNYYWGQGTQVTVSS | high polyreactivity |
| QVQLVESGGGLLQAGGSLRLSCAASGSIFTLYDMGRYRQAPGKERELVAAITSGGSTDYADSVKGRFTISRDYAKNTVFLQMNSLKPEDTAVYYCNAEAYPYWYRGASRDYDYWGQGTQVTVSS | low polyreactivity |
| QVQLVESGGGLLQAGGSLRLSCAASGSTFPSYAMGWYRQAPGKERELVAAINSGGGTNYADSVKGRFTISRDNAKNNVYLQMNSLKPEDTAVYYCAKSRYDYTKTDGGYWGQGTQVTVSS | low polyreactivity |
| QVQLVESGGGLLQAGGSLRLSCAASGSTFVYYAMGWYRQAPGKERELVASINSGGSTYYADSVKGRFRISRDNEKNTVYLQMNSLKPEDTAVYYCAATSIPPSVHLQDPTYDYWGQGTQVTVSS | low polyreactivity |
| QVQLVESGGGLLQAGGSLRLSCAASGSTFYIYSMGCYRQAPGKERELVARISGAGGSTYYSDSVKGRFTISRDNAKNTVYFQMNCLNPEDTAVYYCAAVDIYKYYQYYACPYDSYDYWGQGTQVTVSS | low polyreactivity |
| QVQLVESGGGLLQAGGSLRLSCAASGSTIWSYAMGWYRQAPGKERELVASITWSGGSTYADSVKGRFTISRDNAKNTVYLQMNSLKPEDTAVYYCAADRGSYPDTGDYWGHGTQVTVSS | low polyreactivity |
| QVQLVESGGGLLQAGGSLRLSCAASGSTVGINAMGWYRQAPGKERELVASITRRGGSTYYADSVKGRFTISRDNAKNTVYLQMNSLKPEDTAVYYCNKTYRYGTPLYDYWGQGSQVTVSS | high polyreactivity |
